Source: the nanobody polyreactivity screen of Harvey et al. (2022)

test: yeast display, Sf9 membrane polyspecificity reagent, FACS + sequencing; frameworks hold sequencing errors
In short: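 Galactose-induced (36–48 hours) yeast carrying a synthetic nanobody display library were exposed to 10% biotinylated, detergent-solubilized Sf9 membrane reagent at 4 °C for 1 hour. FACS followed streptavidin microbead enrichment, using low and high (top ~1%) gates for expression (anti-HA) and reagent binding (streptavidin). Colony PCR, MiSeq 2 × 250 sequencing and CDR-length filtering followed. Labels for polyreactivity reflect the gate of origin.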

Sequence | polyreactivity (PSR sort gate)
QVQLVESGGGLVQAGGSLRLSCAASGRTIDHYAMGWYRQAPGKDRELVAAISTTGGSTYYADSVKGRFTISRDNAMNTVYLQMNSLKPEDTAVYFCAARGLRTGGYWGQGTQVTVSS | high polyreactivity
QVQLVESGGGLVQAGGSLRLSCAASGSTFYRYTMGWYRQAPGKERELVAAISRGGDSTYYADSVKGRFTISRDNAKNTVYLQMNSLKPEDTAVYYCAANVGARKFGYEYNYWGQGTQVTVSS | high polyreactivity
QVQLVESGGGLVQAGGSLRLSCAASGIIFFYNAMGWYRQAPGKERELVAAISSDGSTYYADSVKGRFTISRDNAKNTVYLQMNSLKPEDTAVYYCNAGSLRYGPYNHWGQGTQVTVSS | low polyreactivity
QVQLVESGGGLVQAGGSLRLSCAASGLIFDSYAMGWYRQAPGKERELVAAITYTGGSTYYADSVKGRFTISRDNAKNTVYLQMNSLKPEDTAVYYCAARRQRDRYGYWGQGTQVTVSS | high polyreactivity
QVQLVESGGGLVQEGGSLRLSCAASGIIFSIYAMGWYRQAPGKERELVAVISRSSGSTYYADSVKGRFTISRDNAKNTVYLQMNSLIPEDTSVYFCAARKNRAYGYWGQGTEVTVSS | high polyreactivity
QVQLVESGGGLVQAGGSLRLSCAASGFIFYSYAMGWYRQAPGKERELVAAISSSGRTNYADSVKGRFTISRDNAKNTVYLQMNSLKPEDTAVYYCNVVRWHGYRVGRYDYWGQGSQVTVSS | high polyreactivity
QVQLVESGGGLVQAGGRLRLSCAASGRTIVRYVIGWYRQAPGKERELVARISFSSGSTYYADSVKGRFTISRDNAKNTVYVQMNSLIPEDTAVYYCAASPDVSFRRFSRVVSGDYWGQGTKVTVSS | high polyreactivity
QVQLVESGGGLVQAGGSLRLSCAASGFIFNSYAMGWYRQAPGKERELVATITNGGTTNYADSVKGRFTLSRDNATITVYLQMNSLKPEDTAVYYCAAVGPSVYHEYDYWGQGTQVTVSS | low polyreactivity
QVQLVESGVGLVQAGGILRLSCAAYGTFGSYAMGWYRQAPGKERELVASISGTGGDTYYADSVKGRFTISRDNAKNTVYLQMNSLKPEDTAVYDCAARWSRYWYLGSWLYDYWGQGTQVSVSS | high polyreactivity
QVQLVESGAGLVQAGGSLRLSCAASGSTFYRYVMGWYRQAPGKERELVAAISGSGVRTYYADSVKGRFTISRDNAKNTVYLQMHSLKPEATAVYYCAASVRSRSQTYLRYDYWGQGTQVTVSS | high polyreactivity
HVRLQESGGGLVQAGGSLRQSCAASGAISPYYDMGWYRLAPGKEREFVASIAHGGTTYYADSVKGRFTTSRDNAKYNVYLRMNRLKPEDTAVYFCAAPKRYLGDYWGQGTQVTVSS | high polyreactivity
QVQLVESGGGLVQAGGSLRLSCAASGRTFFQYAMGWYRQPPGKARELVAAIRWSDSTYYADSVKGRFTISRDNAKNTVYLQMNSLKPADTAVYYCAAPRVSQYSTKKYDYWGQGTQVTVSS | low polyreactivity
QDQLVESGGGLVQAGGSLRFSCAASGRIFTYYTMGWYRQAPGKERELVARITFSAGRTYYADSVKGRFTISRDNAKNTVYLQMNSLKPEDTAVYYCAARSYHYRNYYWGQGTQVTVSS | high polyreactivity
QVQLVASGGGLVQAGASLRLSCAASGFTFSLYGLGGYRQAPGKERELVAALRSGGSTNYADSVKGRFTISRDNAKNTVYLQLNSLKPEDTAVYYCATDIHSVLNNRVKHDYDYWGQGTQVTVSS | low polyreactivity
QVQLVESGGGLVQAGGSLRLSCAASGSIFYVNAMGWYRQAPGKERELVAAISVRGGRTYYADSVKGRFTISRDNAKNTVYLQMNILNPEDTAVYYCATRISTVGRYDYWGEGTQVTVSS | high polyreactivity
QVQLVESGGGLVQAGGSLRLSCAASGIIFGGNVMGRYRQAPGKVRELVAAITWSGGTTYYADSVKGRFTISRDNAKNTVYLQMNSLKPEDTAVYYCAADRVYLDYVAGTYDYWGQGTQVTVSS | low polyreactivity
QVQLVESGGGLVQAGGSLRLSCAASGSTFDYNDMGWYRQAPGKERELVASITFSGGTYDADSVKGRFTISRDNAKTTVYLQMNSLTPEDTAVYYCNAVYFFYIDPWNSYPTYDYWGQGTQVTVSS | high polyreactivity
QVQLVESGGGLVQAGGSLRLSCAASGIIFTYYAMGWYRQAPGKERELVAAISVSGSSTYYADSVKGRFTISRDNAKNTVYLQMNSLKPEDTAVYYCAARYQWGTRGFGYWGQGTLVTVSS | high polyreactivity
QVQLVESGGGLVQAGGSLRLSCAASGLTFGYNAMGWYRQAPGNERELVATISYSGGRTYYADSVKGRFTISRDNAKTTVYLQMNSLKPEDTAVYDCATRQRHWSGEFDYWGQGTQVTVSS | high polyreactivity
QVQLVESGGGLVQAGGSLRLSCASSGSTFYSYVMGWYRQAPGKERELVAAITYSGGRTYYADSVKGRFTISRDNEKNTVYFQMYSLKPEDTAVYYCAKRVFNYQRYDYWGQGTQVTVSS | high polyreactivity
QVQLVESGGGLVQAGGSLRLRCAASGRTFYGYAMGWYRQAPGKEREFVAAITYTGGRTYYADSVKGRFTISRDNAKNTVYLQMNSLKPEDTAVYYCNAYYYYVNQGRFEYGYWGQGTQVTVSS | high polyreactivity
QDQLVESGGGLVQAGGSLRLSCAASGRTFDTNAMGWYRQAPGKERELVASISWSTGSTYYADSVKGRFTISRDNAKNTVYLQMNSLKPEDTAVYYCAARKWFRYKGRSRDYWGQGTQVTVSS | high polyreactivity

Sequence | polyreactivity (PSR sort gate)
QVQLVESGGGLVQAGGSLRLSCAASGFIFEYYVMGWYRQAPGKERELVAAISSSDGSTNYADSVKGRFTISRDNAKNTVYLQMNSLKPEDTAVYYCAKDLLKSYNRVVVDADDYWGQGTQVTVSS | low polyreactivity
QVQLVESGGGLVQAGGSLRLSCAASGSIFGQNAMGWYRQAPGKERELVAAITSGAGITYYADSVKGRFTISRDNAKNTVYLQMNSLKPEDPAVYYCNAVPSWSPSPLFDYWGQGTQVTVSS | low polyreactivity
QVQLVESGGGLVQAGGSHRFSCAASGRIIYTNAMGWYRQAPGKEREFVAVISWGGDTTYYADSVKGRFTISRDNAKNTVYLQMNSLKPEDTAVYYCNAEWGPTYEIYDSWGPGTQVTVSS | low polyreactivity
QVQLVESGGGLVQAGGSLRLSCAASGFTFGAYAMGWYRQAPGKERELVAAITRSSTSTFYADSVKGRFTISRDNAKNTVYLQMNSLKPEDTAVYYCAARGRPRYYSYAGDYWGQGTQVTVSS | high polyreactivity
QVQLVDAGGRLVQAGGSLRLSCAASGRIFAYYAMGWSRQAPGKDRELVSGISQRGSRTYYADSVKGRFTISRDNEKNTVYLQMNSLKPEDTAVYYCNTQRWGSGVGSLMDYWGQGTQVTVSS | high polyreactivity
QVQLVESGGGLVQAGGSLRLSCAASGSIFAANTMGWYRQAPGKERELVATISWSSGRTRYADSVKGRFTISRDNAKNTVYLQMNSLKPEDTAVYYCAARYYYSRSRLYYYWGQGTQVTVSS | high polyreactivity
QVQLVESGGGLVQAGGSLRLSCAASGSIFYRNAMGWYRQAPGKERELVAAISSDGSTNYADSVKGRFTISRDNAKNTVYLQMNSLKPEDTAVSYCAAPWTQILDYWGQGTQVTVSS | low polyreactivity
QVQLVESGGGLVQAGGSLRISCAASGNTFEHNAMGWYRQAPGKERELVAVISKSGGRTYYADSVKGRFTISRDNAKNTVYLQMNSLKPEDTAVYYCAKRSPFITWNGISYVEYDYWGPGTQVTVSS | low polyreactivity
QVQLVESGGGLVQAGGSLRLSFAASGFIFPYYAMGWYRQAPGKERELVAAITSSGGSTYYADSVKGRFTISRDNAKNTVYLQMNSLKPEDTAVYYCNAYGRRTREYDYWGQGTQVTVSS | high polyreactivity
QVQLVESGGGLVQAGGSLRLSCAASGIIIRKYAMGWYRQAPGKERELVAAITTRGSRTYYADSVKGRFTISRDNAKNTVYFEMNSLKPEDTAVYYCAADFGYAWWWYDTYGYWGQGTQVTVSS | high polyreactivity
QVQLVESGGGLVQAGGSLRLSCAASGSIFAYYAMGWYRPAPGKERELVAAITVSGGRTNYADSVKGRFTISRDNAKNTVYLQMNSLKPEDTAVYYCAADTYSYWYARYDYWGQGTQVTVSS | high polyreactivity
QVQLVESGGGLVQAGGSLRLSCASSGSTFKVYDMGWSRQAPGKERELVATITWGGGGTYYADSVTGRFTISRDNAKNTVYLLMNSLKPQDTAVYFCAAEVTLYSCYRYWYRYEYWGQGTQVTVSS | high polyreactivity
QVQLVESGGGLVQAGGSLRLSCAASGRTIFYNAMGWYRQAPGKERELVAAINWRGGSTYYADSVKGRFTISRDIAKNTVYLQMNSLKPEDTAVYYCAARNVYVWYDYWGQGTQVTVSS | low polyreactivity
QVQLVESGGGLVQAGGSLRLSCAASGFIFDSYAMGWYRQAPGKERELVAAISWSGGRTYYADSVKGRFTISRDNAKYTVYLQMNSLKPEDTAVYYCNVRTKLSSSYDYWGQGTQVTVSS | high polyreactivity
QVQLVESGGGLVQAGGSLRLICAASGFTFLVYAMAWDRQAPGKERELVAAIRWRGGSTYADSLKGRFTISRDNAKNTVYLQMYSLKPEDTAVYYCAAANRYYVSPRVYYWGQGTQVTVSS | high polyreactivity
QVQLVESGGGLVQAGGSLRLSCAASGSTFDANAMGWYRQAPGKERELVAAISRSGGNTYYPDSVKGRFTISRDNAKNTVYLELNSLKPEDTAVYYCAADFRNAYYDRLDYWGQGTQVTVSS | low polyreactivity
QVQLVESGGGLVQAGGSLRLSCAASGSIFGRYAMGWYRQAPGKERELVATITFRDTSTYYADSVKGRFTISRDTAKYTVLLLMNSLKPEDTAVYYCAAVRADLWDIARYDYWGQGTQETVSS | low polyreactivity
QVQLVESGGGLVKAGGSLRLSCAASGRTFGYYAMGWYRQSPGKERELVADIRQSGGRTYYADSVKGRFRISRDNAKNTVYLQMNSLKPVDTAVYYCAARRSYLAYTYRRSYPMDSWGQGTQVTVSS | high polyreactivity
QVQLVESGGGLVQAGGSLRLSCAASGRTIWYYAMGWYRQAPGKESELVAAISWSGGTTFYADSVKGRFTISRDNAKYTVYLQMNSLKPEDTAVYYCAKKCIGYQEWIHSTRRYDYWGQGTQVTVSS | low polyreactivity
HVQLEESGGGLVQAGGSLRLSCAASGSISRANPSGWSRTAPGKERELLPANSRGGTTTYYADSVKGRFTISRDNAKNTVYLQMNSLKPEDTAVYYCAAVAGGGFPRWRIYFWPKGDYWGQGTQVTVSS | high polyreactivity
QVQLVESGGGLVQAGGSLRLSCAASGSTFGYYAMGWYRQAPGKERELVATITIGGSTHYADSVKGRFTISRDNAKNTVYLQMNSLKPEDTAVYYCAARYAYYTARYTQVKGLDYWGQGTQVTVSS | high polyreactivity
